The labels stand for the following.
B1: Swi3-3FLAG (natural protein, S. pombe, UniProt O14350 1-181, looked up)
chain: MSTAASDSGVEKLVEENKREEVKKNEEEKEFDLGLEENPDSVKKPRKRLAKFDEERLISENGIPKLRKMMRKVKLKGKGHEAKDLKQLLGMYHIWTHELYPRATFDDSISYLKTLGKHRSVKVRRRGWINEIAVENGSDSNASLFTGPSSNSLVNLTSGDPYVQDTADDAFVAQDNDTQLE
B2: Recombinant his-tagged FL-Hst4 (pET28a) (natural protein, S. pombe, UniProt Q9UR39 1-415, looked up)
chain: MKVEEHVPLIQESRKRKCQSSENASKRQQLLSKLPLRLHTGNENVDLSPLVSAIRKAKRIVVVTGAGISCDAGIPDFRSSEGLFSSLRAEYKLNCSGKELFDGSVYRDLKSVNIFHAMIRKLHMLSNNARPTDFHLFLSQLAQESKLLRLYTQNIDFLETRLEGLQTCIPLPQSAPWPTTIPLHGTLEVVSCTRCSFLKKFNPDIFDRNGVTVCPDCKTENEVRRIAGKRSVIEGCLRPRIVLYNEIHPDSESIGSVCSQDLKSRPDCLIVAGTSCKIPGVKRIIKEMSNCVHKQKGNVIWLNYDEPTKDFLNLCDLVVQGDLQIAIRRLKPLLDAPSWKLKSHSAKRTSKQKSSEQTKITSSTKITKAIGLNTKSNDSSKKDNTSFQLHQVLNSIEIPKVEIKQEVEYATPSPL

What all share (experiment): pull-down
Test [1] has as its target B2.
For the next test, the target named is Swi1-3FLAG (S. pombe, UniProt Q9UUM2 1-971).
The target of test [2] is DDK (Hsk1-HA with Dfp1-myc) (S. pombe, UniProt P50582 1-507; O59836 1-545).
DDK (Hsk1-HA with Dfp1-myc), sequence (P50582 whole entry, chain 1 of 2): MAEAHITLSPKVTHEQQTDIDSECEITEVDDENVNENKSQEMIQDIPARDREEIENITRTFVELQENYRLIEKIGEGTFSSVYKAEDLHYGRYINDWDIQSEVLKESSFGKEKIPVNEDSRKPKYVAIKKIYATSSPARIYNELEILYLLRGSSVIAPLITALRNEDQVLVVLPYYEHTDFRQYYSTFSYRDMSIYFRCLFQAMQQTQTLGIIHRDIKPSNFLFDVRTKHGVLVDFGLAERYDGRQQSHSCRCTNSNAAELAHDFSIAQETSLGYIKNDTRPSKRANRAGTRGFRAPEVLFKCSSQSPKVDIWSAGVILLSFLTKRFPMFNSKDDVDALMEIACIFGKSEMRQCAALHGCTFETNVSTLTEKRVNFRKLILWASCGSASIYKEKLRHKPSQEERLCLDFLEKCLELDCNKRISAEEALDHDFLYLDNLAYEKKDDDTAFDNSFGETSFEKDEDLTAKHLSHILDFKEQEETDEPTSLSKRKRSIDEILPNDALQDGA
DDK (Hsk1-HA with Dfp1-myc), sequence (O59836 whole entry, chain 2 of 2): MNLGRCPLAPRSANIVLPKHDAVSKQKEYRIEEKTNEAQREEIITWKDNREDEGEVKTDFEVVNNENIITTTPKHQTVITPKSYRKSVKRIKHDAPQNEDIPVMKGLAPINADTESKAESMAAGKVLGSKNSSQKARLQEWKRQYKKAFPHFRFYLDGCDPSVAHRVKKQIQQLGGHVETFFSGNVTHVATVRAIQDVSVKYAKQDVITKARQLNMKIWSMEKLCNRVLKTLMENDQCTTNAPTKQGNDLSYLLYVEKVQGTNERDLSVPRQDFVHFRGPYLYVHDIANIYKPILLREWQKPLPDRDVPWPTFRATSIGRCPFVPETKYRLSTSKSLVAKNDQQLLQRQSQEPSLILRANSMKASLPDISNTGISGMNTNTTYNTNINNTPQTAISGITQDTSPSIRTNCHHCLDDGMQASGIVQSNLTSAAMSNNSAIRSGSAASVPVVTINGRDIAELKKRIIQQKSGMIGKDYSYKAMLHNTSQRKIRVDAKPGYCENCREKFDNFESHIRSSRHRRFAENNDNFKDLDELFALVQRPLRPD

Swi1-3FLAG, sequence (Q9UUM2 whole entry): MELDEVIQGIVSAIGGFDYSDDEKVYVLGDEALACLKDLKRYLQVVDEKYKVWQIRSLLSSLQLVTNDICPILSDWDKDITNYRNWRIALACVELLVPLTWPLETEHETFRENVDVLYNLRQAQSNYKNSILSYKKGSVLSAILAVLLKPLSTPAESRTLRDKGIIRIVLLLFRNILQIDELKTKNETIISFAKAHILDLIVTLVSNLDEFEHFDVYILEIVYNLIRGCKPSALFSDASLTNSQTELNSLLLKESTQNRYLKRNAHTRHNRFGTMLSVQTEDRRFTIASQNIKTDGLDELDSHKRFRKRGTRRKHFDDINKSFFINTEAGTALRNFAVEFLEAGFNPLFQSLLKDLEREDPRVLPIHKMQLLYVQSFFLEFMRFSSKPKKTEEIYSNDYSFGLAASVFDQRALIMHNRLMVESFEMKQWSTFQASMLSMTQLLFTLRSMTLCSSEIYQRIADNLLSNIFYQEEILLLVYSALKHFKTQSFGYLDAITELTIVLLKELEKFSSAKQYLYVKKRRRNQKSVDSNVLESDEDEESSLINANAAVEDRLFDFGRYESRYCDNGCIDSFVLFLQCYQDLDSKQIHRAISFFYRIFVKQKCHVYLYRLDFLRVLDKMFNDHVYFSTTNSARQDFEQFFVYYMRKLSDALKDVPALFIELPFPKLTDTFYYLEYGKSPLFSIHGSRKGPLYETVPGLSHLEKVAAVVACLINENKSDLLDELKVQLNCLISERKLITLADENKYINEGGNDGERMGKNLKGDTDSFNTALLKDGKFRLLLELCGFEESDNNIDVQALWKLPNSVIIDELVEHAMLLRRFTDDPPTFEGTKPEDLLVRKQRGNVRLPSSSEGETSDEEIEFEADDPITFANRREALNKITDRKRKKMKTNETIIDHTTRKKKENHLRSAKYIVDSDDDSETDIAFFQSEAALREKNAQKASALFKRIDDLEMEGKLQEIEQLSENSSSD

Turning to B1, the binding result in test [1] is recorded as “binds”.
As to B2, the binding result (in the test with Swi1-3FLAG; in test [2]) was “binds” each time.

The values above are taken from PMC8565929 (eLife, 2021).
